Experiments:
HeLa Kyoto [1] = test: solubility change mitosis vs G1/S (difference of NP-40 vs SDS log2 ratios) (log2 ratio difference); higher = more soluble in mitosis
HeLa Kyoto [2] = test: solubility in G1/S (NP-40 vs SDS abundance) (log2 ratio); higher = more soluble; settings: cell cycle stage: G1/S
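Wherever solubility change mitosis vs G1/S (difference of NP-40 vs SDS log2 ratios) is given: synchronized HeLa Kyoto cells (double thymidine block for G1/S, nocodazole release for mitosis), protein amounts in NP-40 versus SDS lysates quantified by mass spectrometry, three biological replicates.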
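Wherever solubility in G1/S (NP-40 vs SDS abundance) is given: HeLa Kyoto cells arrested at G1/S by double thymidine block, proteins quantified by TMT10plex mass spectrometry in mild NP-40 versus SDS extracts, three biological replicates.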

HOXC10, sequence (chain, as listed by the source): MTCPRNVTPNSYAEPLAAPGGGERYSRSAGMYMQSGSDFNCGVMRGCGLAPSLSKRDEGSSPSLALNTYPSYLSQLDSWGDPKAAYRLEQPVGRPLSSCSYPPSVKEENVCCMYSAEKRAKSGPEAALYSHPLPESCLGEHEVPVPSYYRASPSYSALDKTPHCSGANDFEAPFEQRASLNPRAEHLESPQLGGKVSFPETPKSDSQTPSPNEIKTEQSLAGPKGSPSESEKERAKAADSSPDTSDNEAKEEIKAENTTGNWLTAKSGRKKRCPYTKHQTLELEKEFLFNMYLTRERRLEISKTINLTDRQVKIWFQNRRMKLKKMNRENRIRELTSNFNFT

Substance: MPPLKSPAAFHEQRRSLERARTEDYLKRKIRSRPERSELVRMHILEETSAEPSLQAKQLKLKRARLADDLNEKIAQRPGPMELVEKNILPVESSLKEAIIVGQVNYPKVADSSSFDEDSSDALSPEQPASHESQGSVPSPLEARVSEPLLSATSASPTQVVSQLPMGRDSREMLFLAEQPPLPPPPLLPPSLTNGTTIPTAKSTPTLIKQSQPKSASEKSQRSKKAKELKPKVKKLKYHQYIPPDQKQDRGAPPMDSSYAKILQQQQLFLQLQILNQQQQQHHNYQAILPAPPKSAGEALGSSGTPPVRSLSTTNSSSSSGAPGPCGLARQNSTSLTGKPGALPANLDDMKVAELKQELKLRSLPVSGTKTELIERLRAYQDQISPVPGAPKAPAATSILHKAGEVVVAFPAARLSTGPALVAAGLAPAEVVVATVASSGVVKFGSTGSTPPVSPTPSERSLLSTGDENSTPGDTFGEMVTSPLTQLTLQASPLQILVKEEGPRAGSCCLSPGGRAELEGRDKDQMLQEKDKQIEALTRMLRQKQQLVERLKLQLEQEKRAQQPAPAPAPLGTPVKQENSFSSCQLSQQPLGPAHPFNPSLAAPATNHIDPCAVAPGPPSVVVKQEALQPEPEPVPAPQLLLGPQGPSLIKGVAPPTLITDSTGTHLVLTVTNKNADSPGLSSGSPQQPSSQPGSPAPAPSAQMDLEHPLQPLFGTPTSLLKKEPPGYEEAMSQQPKQQENGSSSQQMDDLFDILIQSGEISADFKEPPSLPGKEKPSPKTVCGSPLAAQPSPSAELPQAAPPPPGSPSLPGRLEDFLESSTGLPLLTSGHDGPEPLSLIDDLHSQMLSSTAILDHPPSPMDTSELHFVPEPSSTMGLDLADGHLDSMDWLELSSGGPVLSLAPLSTTAPSLFSTDFLDGHDLQLHWDSCL [MKL1]
- solubility change mitosis (log2) (HeLa Kyoto [1]): -0.244
- solubility in G1/S (log2) (HeLa Kyoto [2]): 0.297

Substance: MPVERMRMRPWLEEQINSNTIPGLKWLNKEKKIFQIPWMHAARHGWDVEKDAPLFRNWAIHTGKHQPGVDKPDPKTWKANFRCAMNSLPDIEEVKDKSIKKGNNAFRVYRMLPLSERPSKKGKKPKTEKEDKVKHIKQEPVESSLGLSNGVSDLSPEYAVLTSTIKNEVDSTVNIIVVGQSHLDSNIENQEIVTNPPDICQVVEVTTESDEQPVSMSELYPLQISPVSSYAESETTDSVPSDEESAEGRPHWRKRNIEGKQYLSNMGTRGSYLLPGMASFVTSNKPDLQVTIKEESNPVPYNSSWPPFQDLPLSSSMTPASSSSRPDRETRASVIKKTSDITQARVKSC [IRF2]
- solubility change mitosis (log2) (HeLa Kyoto [1]): 0.0622
- solubility in G1/S (log2) (HeLa Kyoto [2]): 0.0934

Substance: MDEQPRLMHSHAGVGMAGHPGLSQHLQDGAGGTEGEGGRKQDIGDILQQIMTITDQSLDEAQARKHALNCHRMKPALFNVLCEIKEKTVLSIRGAQEEEPTDPQLMRLDNMLLAEGVAGPEKGGGSAAAAAAAAASGGAGSDNSVEHSDYRAKLSQIRQIYHTELEKYEQACNEFTTHVMNLLREQSRTRPISPKEIERMVSIIHRKFSSIQMQLKQSTCEAVMILRSRFLDARRKRRNFNKQATEILNEYFYSHLSNPYPSEEAKEELAKKCGITVSQVSNWFGNKRIRYKKNIGKFQEEANIYAAKTAVTATNVSAHGSQANSPSTPNSAGSSSSFNMSNSGDLFMSVQSLNGDSYQGAQVGANVQSQVDTLRHVISQTGGYSDGLAASQMYSPQGISANGGWQDATTPSSVTSPTEGPGSVHSDTSN [PBX1]
- solubility change mitosis (log2) (HeLa Kyoto [1]): 0.0731
- solubility in G1/S (log2) (HeLa Kyoto [2]): 0.177

Substance: MALDPADQHLRHVEKDVLIPKIMREKAKERCSEQVQDFTKCCKNSGVLMVVKCRKENSALKECLTAYYNDPAFYEECKMEYLKEREEFRKTGIPTKKRLQKLPTSM [CMC1]
- solubility change mitosis (log2) (HeLa Kyoto [1]): 0.26
- solubility in G1/S (log2) (HeLa Kyoto [2]): -0.253

Substance: HOXC10
- solubility change mitosis (log2) (HeLa Kyoto [1]): -0.0635
- solubility in G1/S (log2) (HeLa Kyoto [2]): 0.535

Substance: MAAENSKQFWKRSAKLPGSIQPVYGAQHPPLDPRLTKNFIKERSKVNTVPLKNKKASSFHEFARNTSDAWDIGDDEEEDFSSPSFQTLNSKVALATAAQVLENHSKLRVKPERSQSTTSDVPANYKVIKSSSDAQLSRNSSDTCLRNPLHKQQSLPLRPIIPLVARISDQNASGAPPMTVREKTRLEKFRQLLSSQNTDLDELRKCSWPGVPREVRPITWRLLSGYLPANTERRKLTLQRKREEYFGFIEQYYDSRNEEHHQDTYRQIHIDIPRTNPLIPLFQQPLVQEIFERILFIWAIRHPASGYVQGINDLVTPFFVVFLSEYVEEDVENFDVTNLSQDMLRSIEADSFWCMSKLLDGIQDNYTFAQPGIQKKVKALEELVSRIDEQVHNHFRRYEVEYLQFAFRWMNNLLMRELPLRCTIRLWDTYQSEPEGFSHFHLYVCAAFLIKWRKEILDEEDFQGLLMLLQNLPTIHWGNEEIGLLLAEAYRLKYMFADAPNHYRR [TBC1D22B]
- solubility change mitosis (log2) (HeLa Kyoto [1]): -0.0568
- solubility in G1/S (log2) (HeLa Kyoto [2]): -0.183

Substance: MQRAVPEGFGRRKLGSDMGNAERAPGSRSFGPVPTLLLLAAALLAVSDALGRPSEEDEELVVPELERAPGHGTTRLRLHAFDQQLDLELRPDSSFLAPGFTLQNVGRKSGSETPLPETDLAHCFYSGTVNGDPSSAAALSLCEGVRGAFYLLGEAYFIQPLPAASERLATAAPGEKPPAPLQFHLLRRNRQGDVGGTCGVVDDEPRPTGKAETEDEDEGTEGEDEGAQWSPQDPALQGVGQPTGTGSIRKKRFVSSHRYVETMLVADQSMAEFHGSGLKHYLLTLFSVAARLYKHPSIRNSVSLVVVKILVIHDEQKGPEVTSNAALTLRNFCNWQKQHNPPSDRDAEHYDTAILFTRQDLCGSQTCDTLGMADVGTVCDPSRSCSVIEDDGLQAAFTTAHELGHVFNMPHDDAKQCASLNGVNQDSHMMASMLSNLDHSQPWSPCSAYMITSFLDNGHGECLMDKPQNPIQLPGDLPGTSYDANRQCQFTFGEDSKHCPDAASTCSTLWCTGTSGGVLVCQTKHFPWADGTSCGEGKWCINGKCVNKTDRKHFDTPFHGSWGMWGPWGDCSRTCGGGVQYTMRECDNPVPKNGGKYCEGKRVRYRSCNLEDCPDNNGKTFREEQCEAHNEFSKASFGSGPAVEWIPKYAGVSPKDRCKLICQAKGIGYFFVLQPKVVDGTPCSPDSTSVCVQGQCVKAGCDRIIDSKKKFDKCGVCGGNGSTCKKISGSVTSAKPGYHDIITIPTGATNIEVKQRNQRGSRNNGSFLAIKAADGTYILNGDYTLSTLEQDIMYKGVVLRYSGSSAALERIRSFSPLKEPLTIQVLTVGNALRPKIKYTYFVKKKKESFNAIPTFSAWVIEEWGECSKSCELGWQRRLVECRDINGQPASECAKEVKPASTRPCADHPCPQWQLGEWSSCSKTCGKGYKKRSLKCLSHDGGVLSHESCDPLKKPKHFIDFCTMAECS [ADAMTS1]
- solubility change mitosis (log2) (HeLa Kyoto [1]): -0.192
- solubility in G1/S (log2) (HeLa Kyoto [2]): -0.34

Substance: MSMILSASVIRVRDGLPLSASTDYEQSTGMQECRKYFKMLSRKLAQLPDRCTLKTGHYNINFISSLGVSYMMLCTENYPNVLAFSFLDELQKEFITTYNMMKTNTAVRPYCFIEFDNFIQRTKQRYNNPRSLSTKINLSDMQTEIKLRPPYQISMCELGSANGVTSAFSVDCKGAGKISSAHQRLEPATLSGIVGFILSLLCGALNLIRGFHAIESLLQSDGDDFNYIIAFFLGTAACLYQCYLLVYYTGWRNVKSFLTFGLICLCNMYLYELRNLWQLFFHVTVGAFVTLQIWLRQAQGKAPDYDV [SEC22A]
- solubility change mitosis (log2) (HeLa Kyoto [1]): -0.0544
- solubility in G1/S (log2) (HeLa Kyoto [2]): -0.17

Substance: MADSAELKQMVMSLRVSELQVLLGYAGRNKHGRKHELLTKALHLLKAGCSPAVQMKIKELYRRRFPQKIMTPADLSIPNVHSSPMPATLSPSTIPQLTYDGHPASSPLLPVSLLGPKHELELPHLTSALHPVHPDIKLQKLPFYDLLDELIKPTSLASDNSQRFRETCFAFALTPQQVQQISSSMDISGTKCDFTVQVQLRFCLSETSCPQEDHFPPNLCVKVNTKPCSLPGYLPPTKNGVEPKRPSRPINITSLVRLSTTVPNTIVVSWTAEIGRNYSMAVYLVKQLSSTVLLQRLRAKGIRNPDHSRALIKEKLTADPDSEIATTSLRVSLLCPLGKMRLTIPCRALTCSHLQCFDATLYIQMNEKKPTWVCPVCDKKAPYEHLIIDGLFMEILKYCTDCDEIQFKEDGTWAPMRSKKEVQEVSASYNGVDGCLSSTLEHQVASHHQSSNKNKKVEVIDLTIDSSSDEEEEEPSAKRTCPSLSPTSPLNNKGILSLPHQASPVSRTPSLPAVDTSYINTSLIQDYRHPFHMTPMPYDLQGLDFFPFLSGDNQHYNTSLLAAAAAAVSDDQDLLHSSRFFPYTSSQMFLDQLSAGGSTSLPTTNGSSSGSNSSLVSSNSLRESHSHTVTNRSSTDTASIFGIIPDIISLD [PIAS1]
- solubility change mitosis (log2) (HeLa Kyoto [1]): 0.113
- solubility in G1/S (log2) (HeLa Kyoto [2]): -0.461

Substance: MPAPAATYERVVYKNPSEYHYMKVCLEFQDCGVGLNAAQFKQLLISAVKDLFGEVDAALPLDILTYEEKTLSAILRICSSGLVKLWSSLTLLGSYKGKKCAFRVIQVSPFLLALSGNSRELVLD [RPP14]
- solubility change mitosis (log2) (HeLa Kyoto [1]): 0.0872
- solubility in G1/S (log2) (HeLa Kyoto [2]): -0.294

Substance: MVARVWSLMRFLIKGSVAGGAVYLVYDQELLGPSDKSQAALQKAGEVVPPAMYQFSQYVCQQTGLQIPQLPAPPKIYFPIRDSWNAGIMTVMSALSVAPSKAREYSKEGWEYVKARTK [MIC13]
- solubility change mitosis (log2) (HeLa Kyoto [1]): 0.449
- solubility in G1/S (log2) (HeLa Kyoto [2]): 0.091

Substance: MAGPPALPPPETAAAATTAAAASSSAASPHYQEWILDTIDSLRSRKARPDLERICRMVRRRHGPEPERTRAELEKLIQQRAVLRVSYKGSISYRNAARVQPPRRGATPPAPPRAPRGAPAAAAAAAPPPTPAPPPPPAPVAAAAPARAPRAAAAAATAPPSPGPAQPGPRAQRAAPLAAPPPAPAAPPAVAPPAGPRRAPPPAVAAREPPLPPPPQPPAPPQQQQPPPPQPQPPPEGGAVRAGGAARPVSLREVVRYLGGSGGAGGRLTRGRVQGLLEEEAAARGRLERTRLGALALPRGDRPGRAPPAASARPSRSKRGGEERVLEKEEEEDDDEDEDEEDDVSEGSEVPESDRPAGAQHHQLNGERGPQSAKERVKEWTPCGPHQGQDEGRGPAPGSGTRQVFSMAAMNKEGGTASVATGPDSPSPVPLPPGKPALPGADGTPFGCPPGRKEKPSDPVEWTVMDVVEYFTEAGFPEQATAFQEQEIDGKSLLLMQRTDVLTGLSIRLGPALKIYEHHIKVLQQGHFEDDDPDGFLG [SAMD1]
- solubility change mitosis (log2) (HeLa Kyoto [1]): 0.323
- solubility in G1/S (log2) (HeLa Kyoto [2]): -0.144

Substance: MPCVQAQYSPSPPGSSYAAQTYSSEYTTEIMNPDYTKLTMDLGSTEITATATTSLPSISTFVEGYSSNYELKPSCVYQMQRPLIKVEEGRAPSYHHHHHHHHHHHHHHQQQHQQPSIPPASSPEDEVLPSTSMYFKQSPPSTPTTPAFPPQAGALWDEALPSAPGCIAPGPLLDPPMKAVPTVAGARFPLFHFKPSPPHPPAPSPAGGHHLGYDPTAAAALSLPLGAAAAAGSQAAALESHPYGLPLAKRAAPLAFPPLGLTPSPTASSLLGESPSLPSPPSRSSSSGEGTCAVCGDNAACQHYGVRTCEGCKGFFKRTVQKNAKYVCLANKNCPVDKRRRNRCQYCRFQKCLSVGMVKEVVRTDSLKGRRGRLPSKPKSPLQQEPSQPSPPSPPICMMNALVRALTDSTPRDLDYSRYCPTDQAAAGTDAEHVQQFYNLLTASIDVSRSWAEKIPGFTDLPKEDQTLLIESAFLELFVLRLSIRSNTAEDKFVFCNGLVLHRLQCLRGFGEWLDSIKDFSLNLQSLNLDIQALACLSALSMITERHGLKEPKRVEELCNKITSSLKDHQSKGQALEPTESKVLGALVELRKICTLGLQRIFYLKLEDLVSPPSIIDKLFLDTLPF [NR4A3]
- solubility change mitosis (log2) (HeLa Kyoto [1]): -0.0421
- solubility in G1/S (log2) (HeLa Kyoto [2]): -0.0603

Substance: MMAGCGEIDHSINMLPTNRKANESCSNTAPSLTVPECAICLQTCVHPVSLPCKHVFCYLCVKGASWLGKRCALCRQEIPEDFLDKPTLLSPEELKAASRGNGEYAWYYEGRNGWWQYDERTSRELEDAFSKGKKNTEMLIAGFLYVADLENMVQYRRNEHGRRRKIKRDIIDIPKKGVAGLRLDCDANTVNLARESSADGADSVSAQSGASVQPLVSSVRPLTSVDGQLTSPATPSPDASTSLEDSFAHLQLSGDNTAERSHRGEGEEDHESPSSGRVPAPDTSIEETESDASSDSEDVSAVVAQHSLTQQRLLVSNANQTVPDRSDRSGTDRSVAGGGTVSVSVRSRRPDGQCTVTEV [RNF146]
- solubility change mitosis (log2) (HeLa Kyoto [1]): -0.158
- solubility in G1/S (log2) (HeLa Kyoto [2]): -0.244
